Assays:
[1] = biological target: T1, SulA (cysteate acyl-ACP transferase) (Alistipes finegoldii, UniProt I3YKQ4); experiment: X-ray crystal structure […] Å (SeMet-SulA); UV-Vis […] nm internal aldimine; type: binding; details: covalent, internal aldimine at Lys251
T1 construct: gene Alfi_1224
T1 sequence (I3YKQ4 1-423): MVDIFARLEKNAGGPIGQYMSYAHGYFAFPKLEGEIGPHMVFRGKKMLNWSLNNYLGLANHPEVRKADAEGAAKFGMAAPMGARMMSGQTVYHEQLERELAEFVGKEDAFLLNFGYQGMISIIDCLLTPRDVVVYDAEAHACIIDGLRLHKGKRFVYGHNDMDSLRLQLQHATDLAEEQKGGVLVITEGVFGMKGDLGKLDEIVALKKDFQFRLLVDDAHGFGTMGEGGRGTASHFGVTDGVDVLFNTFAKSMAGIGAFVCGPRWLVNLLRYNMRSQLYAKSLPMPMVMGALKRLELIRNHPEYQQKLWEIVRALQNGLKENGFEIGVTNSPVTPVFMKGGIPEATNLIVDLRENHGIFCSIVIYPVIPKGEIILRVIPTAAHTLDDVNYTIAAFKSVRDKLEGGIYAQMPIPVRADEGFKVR

[2] = biological target: T1, SulA (cysteate acyl-ACP transferase); experiment: UV-Vis spectral titration (external aldimine, A430); type: binding
[3] = biological target: T2, SulA (cysteate acyl-ACP transferase) (Alistipes finegoldii, UniProt I3YKQ4, K281A); experiment: as above; type: binding
T2 construct: gene Alfi_1224
T2 sequence (I3YKQ4 1-423 K281A): T1 sequence (I3YKQ4 1-423)
From the text: UV-Vis spectral titration (external aldimine, A430) on SulA (cysteate acyl-ACP transferase) | SulA(K281A) bound cysteate and formed the PLP-cysteate external aldimine normally

[4] = biological target: cysteate acyl-ACP transferase (SulA), His-tagged (Alistipes finegoldii) (UniProt I3YKQ4)
[5] = biological target: cysteate acyl-ACP transferase (SulA), His-tagged (Alistipes finegoldii) (UniProt I3YKQ4); experiment: AUC; sedimentation velocity, 150 mM NaCl, 1 mM DTT, 20 mM potassium phosphate buffer, pH 7.5, 20 °C, 50,000 rpm, interference optics, c(s) in SEDFIT
[6] = biological target: cysteate acyl-ACP transferase (SulA), His-tagged (Alistipes finegoldii) (UniProt I3YKQ4); experiment: SEC; calibrated HiLoad 16/600 Superdex 200 column, 200 mM NaCl, 20 mM Tris, pH 8.0; single 85 kDa species against standards
[7] = biological target: cysteate acyl-ACP transferase (SulA), His-tagged (Alistipes finegoldii) (UniProt I3YKQ4); experiment: AUC; sedimentation velocity, 150 mM NaCl, 1 mM DTT, 20 mM potassium phosphate buffer, pH 7.5, 20 °C, 50,000 rpm, interference optics, c(s) in SEDFIT; remark: listed apart in the source

With `Cc1ncc(COP(=O)(O)O)c(C=O)c1O` [PLP] the “X-ray crystal structure 2.9 Å (SeMet-SulA); UV-Vis 390 nm internal aldimine” value [1] was “definitively identifies Lys251 as the PLP attachment site”.

Compound `N[C@@H](CS(=O)(=O)O)C(=O)O` [cysteate] has a Kd [2] of 4.86 ± 0.08 mM and a Kd [3] of 6.11 ± 1.1 mM.

“[14C]16:0-acyl carrier protein (from UniProt P0A6A8 1-78) (natural protein)” was tested, and the SulA enzyme activity (formation of 3-keto[14C]capnine, TLC) against 0-200 μM [14C]16:0-ACP with 100 mM cysteate; K0.5 of an allosteric sigmoidal fit [4] was 26.7 µM.

Compound “cysteate acyl-ACP transferase (SulA), His-tagged (from UniProt I3YKQ4 1-423) (enzyme)” has a stoichiometry N [5] of 4, a stoichiometry N [6] of 2 and a stoichiometry N [7] of 2.

— publication PMC9304779, “Biochemical characterization of the first step in sulfonolipid biosynthesis in Alistipes finegoldii” (The Journal of Biological Chemistry, 2022)
